± gives the standard deviation of the averaged measurements.
B1: library; a variant is named by its letters at N, in order (parent)
chain: GCUGUCACCGGAAUACCAGCAUCGUCUUGAUGCCCUUGGAAGUCCGGUCUGAUGAGUCCNNNNNGGACGAAACAGC

Assays:
[1] = variants of: B1; experiment: FACS-Seq fitted mean relative fluorescence mCherry/BFP without ligand (log10 relative fluorescence); higher = higher reporter protein expression; details: HEK293T, ligand present: no
Method in brief: (§1)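 With or without ligand for 48 h, enriched HEK293T libraries carrying a lentiviral ribozyme-switch mCherry reporter and EF1α-BFP were sorted into 6 mCherry/BFP bins. Bin genomic DNA was amplified by PCR, barcoded and sequenced on MiSeq. Fluorescence was taken from normal fits to the resulting bin counts. Each fitted mean of log10(mCherry/BFP) was scaled to five spiked-in control ribozymes.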

[2] = variants of: B1; experiment: normalized RNA/DNA level with ligand (relative to sTRSVctl = 100) (log10 (% of sTRSVctl)); higher = less ribozyme self-cleavage, higher mRNA level; details: ligand concentration (+) RNA-Seq: 5 mM, HEK293T, reporter: mCherry (pCS4076), ligand present: yes
Method in brief: (§2)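 RNA level was computed as RNA reads over DNA reads divided by a spiked-in non-cleaving sequence or by the top sequences, then scaled and log-transformed. Scaling was ×100 with log10, the top group was 25 sequences, and the threshold was ≥100 DNA reads. The reads came from HEK293T cells transfected at 4 µg per 6-well well with ribozyme switch library plasmids (mCherry, or eGFP in some ligand experiments). Total RNA was extracted with EDTA 72 h after transfection, with any ligand added 1 h before it.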

[3] = variants of: B1; experiment: normalized RNA/DNA level without ligand (relative to sTRSVctl = 100) (log10 (% of sTRSVctl)); higher = less ribozyme self-cleavage, higher mRNA level; details: HEK293T, reporter: mCherry (pCS4076), ligand present: no
Method in brief: as §2

[4] = variants of: B1; experiment: FACS-Seq fitted mean relative fluorescence mCherry/BFP with ligand (log10 relative fluorescence); ligand concentration (+) FACS-Seq: 1 mM; higher = higher reporter protein expression; details: HEK293T, ligand present: yes
Method in brief: as §1

Variant	FACS-Seq fitted mean (log10) [1]	normalized RNA/DNA level with ligand (log10) [2]	normalized RNA/DNA level without ligand (log10) [3]	FACS-Seq fitted mean (log10) [4]
AAAGU	0.9033 ± 0.0058	1.923 ± 0.018	1.58 ± 0.018	1.1 ± 0.046
CCAAA	0.24 ± 0.12	1.97 ± 0.051	1.48 ± 0.06	0.619 ± 0.23
UAAUC	0.913 ± 0.018	1.9 ± 0.047	1.94 ± 0.098	0.9083 ± 0.0059
UUAAU	1.13 ± 0.062	1.9977 ± 0.0018	1.956 ± 0.013	1.07 ± 0.036
CAGUU	0.491 ± 0.036	2.06 ± 0.055	1.6287 ± 0.00046	0.76 ± 0.037
UCGGU	0.776 ± 0.2	2.084 ± 0.0052	1.8 ± 0.16	0.68 ± 0.021
CAUAA	-0.291 ± 0.12	1.88 ± 0.0023	1.06 ± 0.47	0.446 ± 0.011
AUACU	0.617 ± 0.06	2.02 ± 0.038	1.79 ± 0.033	0.713 ± 0.032
CCACC	0.788 ± 0.091	1.99 ± 0.087	1.97 ± 0.061	0.739 ± 0.01
AUCCG	0.573 ± 0.011	1.92 ± 0.097	1.96 ± 0.014	0.591 ± 0.063
AAAGC	1.03 ± 0.054	2.03 ± 0.041	1.79 ± 0.043	1.04 ± 0.14
UACAA	0.427 ± 0.022	1.972 ± 0.012	1.6 ± 0.032	0.553 ± 0.018
CUACU	0.761 ± 0.11	1.96 ± 0.087	1.8 ± 0.019	0.924 ± 0.034
UGAUC	0.156 ± 0.012	1.88 ± 0.045	1.91 ± 0.099	0.331 ± 0.012
UAGAA	-0.0982 ± 0.13	1.91 ± 0.11	1.43 ± 0.016	0.448 ± 0.028
AGAGG	0.93 ± 0.038	1.956 ± 0.018	1.8 ± 0.11	0.966 ± 0.08
CAGCU	0.425 ± 0.0073	2.017 ± 0.019	1.75 ± 0.059	0.527 ± 0.0083
UCGAU	0.605 ± 0.16	2.087 ± 0.0041	1.78 ± 0.12	0.815 ± 0.057

Variant	FACS-Seq fitted mean (log10) [1]	normalized RNA/DNA level with ligand (log10) [2]	normalized RNA/DNA level without ligand (log10) [3]	FACS-Seq fitted mean (log10) [4]
AGGGU	0.635 ± 0.08	2.05 ± 0.073	1.74 ± 0.05	0.897 ± 0.059
CAAGU	0.759 ± 0.043	1.976 ± 0.016	1.94 ± 0.067	0.761 ± 0.14
UCGAA	0.342 ± 0.019	1.97 ± 0.055	1.48 ± 0.066	0.951 ± 0.086
UUACU	1.05 ± 0.07	2.08 ± 0.052	1.93 ± 0.058	1.01 ± 0.18
GUAGA	0.949 ± 0.15	1.8 ± 0.057	1.66 ± 0.14	0.935 ± 0.15
CCGCU	0.291 ± 0.035	2.09 ± 0.012	1.81 ± 0.024	0.381 ± 0.0062
CGUCC	0.784 ± 0.02	2.01 ± 0.086	2 ± 0.044	0.87 ± 0.021
UAAUG	0.816 ± 0.076	1.929 ± 0.0084	1.814 ± 0.0095	0.887 ± 0.071
UGCUU	0.84 ± 0.14	1.99 ± 0.079	1.95 ± 0.054	0.851 ± 0.037
UACAC	0.83 ± 0.034	1.98 ± 0.02	1.99 ± 0.025	0.695 ± 0.097
UGGCU	1.01 ± 0.063	2.01 ± 0.022	1.948 ± 0.011	0.992 ± 0.099
AGACG	0.74 ± 0.1	2.01 ± 0.082	1.89 ± 0.021	0.863 ± 0.018
CGAAA	0.0755 ± 0.05	1.94 ± 0.023	1.31 ± 0.092	0.587 ± 0.042
ACUAA	0.266 ± 0.016	2.002 ± 0.01	1.65 ± 0.2	0.391 ± 0.0057
AAAGG	0.199 ± 0.022	1.976 ± 0.019	1.71 ± 0.033	0.426 ± 0.04
CUCAU	1.03 ± 0.12	1.973 ± 0.0058	1.85 ± 0.06	1.07 ± 0.03
UGAAC	1.07 ± 0.11	1.97 ± 0.06	1.84 ± 0.036	0.983 ± 0.022
ACUCA	0.648 ± 0.038	1.97 ± 0.14	1.92 ± 0.076	0.659 ± 0.088
